Reference: doi:10.1101/2025.07.09.663943, “A multiplex extracellular interactome screening method employing high-avidity nanoparticles” (bioRxiv, 2025)

Key:
Assay in all cases: Multiplex Interactome Assay (MPIA; bead-based, Luminex FLEXMAP 3D); runs D1-D4; baits ECD-hFc-ST3 on dimeric SC3 (SpyCatcher003-Cys) MagPlex beads, pooled; one prey a well: ECD-hFc-ST3 on 60-mer SC3-mi3 nanoparticles with GFP-V5-HA-ST3 adapter, 300 nM ECD where possible; 2 h at room temperature, 1% casein in 1x PBS; mouse anti-V5 and PE goat anti-mouse; read-out MFI; hit = seen in three of four runs
[1] = target: WFIKKN2-hFc-ST3 (human) (UniProt Q8TEU8)
[2] = target: PVR ECD-hFc-ST3 (human) (UniProt P15151)
PVR ECD-hFc-ST3 (human), sequence (P15151 21-343): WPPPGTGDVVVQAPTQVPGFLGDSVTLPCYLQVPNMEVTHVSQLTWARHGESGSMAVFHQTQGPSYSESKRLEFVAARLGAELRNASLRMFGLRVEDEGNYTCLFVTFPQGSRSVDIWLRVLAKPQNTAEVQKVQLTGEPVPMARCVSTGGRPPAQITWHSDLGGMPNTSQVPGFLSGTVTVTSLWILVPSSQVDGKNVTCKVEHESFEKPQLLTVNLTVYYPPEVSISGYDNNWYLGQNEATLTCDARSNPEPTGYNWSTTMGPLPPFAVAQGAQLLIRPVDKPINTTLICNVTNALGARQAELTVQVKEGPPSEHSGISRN

[3] = target: PuncE11 ECD-hFc-ST3 (human) (UniProt Q8TDY8)
[4] = target: T1, IL6R ECD-hFc-ST3 (human, UniProt P08887 20-365); details: both partners purified
T1 construct: IL6R (interleukin-6 receptor subunit alpha), human, extracellular domain; Dimeric ECD-hFc-ST3 fusion behind the influenza HA signal peptide; prey on SC3-mi3 nanoparticles, bait on SC3 beads; source: Expi293, transfected, purified from supernatant (Ni-NTA / HisTrapFF); not shown: Fc (human IgG1, DAPA mutations), C-terminal, kept; FLAG, C-terminal, kept; SpyTag003, C-terminal, kept
T1 sequence (looked up): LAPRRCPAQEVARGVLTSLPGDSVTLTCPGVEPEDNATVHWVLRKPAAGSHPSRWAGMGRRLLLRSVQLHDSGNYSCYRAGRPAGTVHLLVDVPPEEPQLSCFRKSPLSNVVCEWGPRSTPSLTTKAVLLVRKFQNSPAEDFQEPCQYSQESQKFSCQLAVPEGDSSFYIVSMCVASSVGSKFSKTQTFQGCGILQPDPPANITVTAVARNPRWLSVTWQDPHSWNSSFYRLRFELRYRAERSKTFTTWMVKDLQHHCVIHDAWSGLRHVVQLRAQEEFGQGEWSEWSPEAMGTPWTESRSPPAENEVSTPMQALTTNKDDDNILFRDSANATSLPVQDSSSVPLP

[5] = target: T2, AXL ECD-hFc-ST3 (human, UniProt P30530 26-451); details: both partners purified
T2 construct: AXL (tyrosine-protein kinase receptor UFO), human, extracellular domain; Dimeric ECD-hFc-ST3 fusion behind the influenza HA signal peptide; prey on SC3-mi3 nanoparticles, bait on SC3 beads; source: Expi293, transfected, purified from supernatant (Ni-NTA / HisTrapFF); not shown: Fc (human IgG1, DAPA mutations), C-terminal, kept; FLAG, C-terminal, kept; SpyTag003, C-terminal, kept
T2 sequence (looked up): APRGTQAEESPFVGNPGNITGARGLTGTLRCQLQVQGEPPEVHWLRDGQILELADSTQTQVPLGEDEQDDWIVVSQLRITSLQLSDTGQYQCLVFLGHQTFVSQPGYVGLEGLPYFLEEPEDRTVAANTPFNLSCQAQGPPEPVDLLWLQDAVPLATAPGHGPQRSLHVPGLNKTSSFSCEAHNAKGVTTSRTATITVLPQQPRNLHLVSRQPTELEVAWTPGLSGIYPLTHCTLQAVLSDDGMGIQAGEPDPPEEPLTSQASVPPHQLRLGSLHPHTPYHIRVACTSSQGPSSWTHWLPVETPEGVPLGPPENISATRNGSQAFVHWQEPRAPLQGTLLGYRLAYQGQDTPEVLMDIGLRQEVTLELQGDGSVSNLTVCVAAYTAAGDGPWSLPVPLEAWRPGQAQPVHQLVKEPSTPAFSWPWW

[6] = target: T3, IGFBPL1-hFc-ST3 (human, UniProt Q8WX77 26-278); details: both partners purified
T3 construct: Dimeric hFc-ST3 fusion behind the influenza HA signal peptide; prey on SC3-mi3 nanoparticles, bait on SC3 beads; source: Expi293, transfected, purified from supernatant (Ni-NTA / HisTrapFF); not shown: Fc (human IgG1, DAPA mutations), C-terminal, kept; FLAG, C-terminal, kept; SpyTag003, C-terminal, kept
T3 sequence (looked up): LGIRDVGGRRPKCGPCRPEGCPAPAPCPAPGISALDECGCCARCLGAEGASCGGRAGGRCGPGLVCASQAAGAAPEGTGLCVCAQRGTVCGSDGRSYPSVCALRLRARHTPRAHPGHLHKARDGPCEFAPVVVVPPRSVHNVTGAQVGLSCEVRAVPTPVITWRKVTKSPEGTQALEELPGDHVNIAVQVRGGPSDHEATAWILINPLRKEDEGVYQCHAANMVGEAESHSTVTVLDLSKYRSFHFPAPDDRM

## PuncE11 ECD-hFc-ST3 (from UniProt Q8TDY8 25-957) (Fc fusion)
[1]
  MFI: > 7000

## KIR2DL5 ECD-hFc-ST3 (from UniProt Q8N109 22-238) (Fc fusion)
[2]
  MFI: 5360

B1: WFIKKN2-hFc-ST3 (Fc fusion)
chain: LPPIRYSHAGICPNDMNPNLWVDAQSTCRRECETDQECETYEKCCPNVCGTKSCVAARYMDVKGKKGPVGMPKEATCDHFMCLQQGSECDIWDGQPVCKCKDRCEKEPSFTCASDGLTYYNRCYMDAEACSKGITLAVVTCRYHFTWPNTSPPPPETTMHPTTASPETPELDMAAPALLNNPVHQSVTMGETVSFLCDVVGRPRPEITWEKQLEDRENVVMRPNHVRGNVVVTNIAQLVIYNAQLQDAGIYTCTARNVAGVLRADFPLSVVRGHQAAATSESSPNGTAFPAAECLKPPDSEDCGEEQTRWHFDAQANNCLTFTFGHCHRNLNHFETYEACMLACMSGPLAACSLPALQGPCKAYAPRWAYNSQTGQCQSFVYGGCEGNGNNFESREACEESCPFPRGNQRCRACKPRQKLVTSFCRSDFVILGRVSELTEEPDSGRALVTVDEVLKDEKMGLKFLGQEPLEVTLLHVDWACPCPNVTVSEMPLIIMGEVDGGMAMLRPDSFVGASSARRVRKLREVMHKKTCDVLKEFLGLH
[3]
  MFI: > 7000

B2: TIGIT ECD-hFc-ST3 (Fc fusion, human, UniProt Q495A1 22-141, looked up)
chain: MMTGTIETTGNISAEKGGSIILQCHLSSTTAQVTQVNWEQQDQLLAICNADLGWHISPSFKDRVAPGPGLGLTLQSLTVNDTGEYFCIYHTYPDGTYTGRIFLEVLESSVAEHGARFQIP
notes: TIGIT, human, extracellular domain; Dimeric ECD-hFc-ST3 fusion behind the influenza HA signal peptide; prey on SC3-mi3 nanoparticles, bait on SC3 beads; source: Expi293, transfected, purified from supernatant (Ni-NTA / HisTrapFF); not shown: Fc (human IgG1, DAPA mutations), C-terminal, kept; FLAG, C-terminal, kept; SpyTag003, C-terminal, kept
[4]
  binding result: binds

B3: ILRL1 ECD-hFc-ST3 (Fc fusion, human, UniProt Q01638 19-328, looked up)
chain: KFSKQSWGLENEALIVRCPRQGKPSYTVDWYYSQTNKSIPTQERNRVFASGQLLKFLPAAVADSGIYTCIVRSPTFNRTGYANVTIYKKQSDCNVPDYLMYSTVSGSEKNSKIYCPTIDLYNWTAPLEWFKNCQALQGSRYRAHKSFLVIDNVMTEDAGDYTCKFIHNENGANYSVTATRSFTVKDEQGFSLFPVIGAPAQNEIKEVEIGKNANLTCSACFGKGTQFLAAVLWQLNGTKITDFGEPRIQQEEGQNQSFSNGLACLDMVLRIADVKEEDLLLQYDCLALNLHGLRRHTVRLSRKNPIDHHS
notes: The label ILRL1 is printed once only; Dimeric ECD-hFc-ST3 fusion behind the influenza HA signal peptide; prey on SC3-mi3 nanoparticles, bait on SC3 beads; source: Expi293, transfected, purified from supernatant (Ni-NTA / HisTrapFF); not shown: Fc (human IgG1, DAPA mutations), C-terminal, kept; FLAG, C-terminal, kept; SpyTag003, C-terminal, kept
[5]
  MFI: 5780

B4: DCC ECD-hFc-ST3 (Fc fusion, human, UniProt P43146 26-1097, looked up)
chain: HLQVTGFQIKAFTALRFLSEPSDAVTMRGGNVLLDCSAESDRGVPVIKWKKDGIHLALGMDERKQQLSNGSLLIQNILHSRHHKPDEGLYQCEASLGDSGSIISRTAKVAVAGPLRFLSQTESVTAFMGDTVLLKCEVIGEPMPTIHWQKNQQDLTPIPGDSRVVVLPSGALQISRLQPGDIGIYRCSARNPASSRTGNEAEVRILSDPGLHRQLYFLQRPSNVVAIEGKDAVLECCVSGYPPPSFTWLRGEEVIQLRSKKYSLLGGSNLLISNVTDDDSGMYTCVVTYKNENISASAELTVLVPPWFLNHPSNLYAYESMDIEFECTVSGKPVPTVNWMKNGDVVIPSDYFQIVGGSNLRILGVVKSDEGFYQCVAENEAGNAQTSAQLIVPKPAIPSSSVLPSAPRDVVPVLVSSRFVRLSWRPPAEAKGNIQTFTVFFSREGDNRERALNTTQPGSLQLTVGNLKPEAMYTFRVVAYNEWGPGESSQPIKVATQPELQVPGPVENLQAVSTSPTSILITWEPPAYANGPVQGYRLFCTEVSTGKEQNIEVDGLSYKLEGLKKFTEYSLRFLAYNRYGPGVSTDDITVVTLSDVPSAPPQNVSLEVVNSRSIKVSWLPPPSGTQNGFITGYKIRHRKTTRRGEMETLEPNNLWYLFTGLEKGSQYSFQVSAMTVNGTGPPSNWYTAETPENDLDESQVPDQPSSLHVRPQTNCIIMSWTPPLNPNIVVRGYIIGYGVGSPYAETVRVDSKQRYYSIERLESSSHYVISLKAFNNAGEGVPLYESATTRSITDPTDPVDYYPLLDDFPTSVPDLSTPMLPPVGVQAVALTHDAVRVSWADNSVPKNQKTSEVRLYTVRWRTSFSASAKYKSEDTTSLSYTATGLKPNTMYEFSVMVTKNRRSSTWSMTAHATTYEAAPTSAPKDLTVITREGKPRAVIVSWQPPLEANGKITAYILFYTLDKNIPIDDWIMETISGDRLTHQIMDLNLDTMYYFRIQARNSKGVGPLSDPILFRTLKVEHPDKMANDQGRHGDGGYWPVDTNLIDRSTLNEPPIGQMHPPHGSVTPQKNSN
notes: DCC (netrin receptor DCC), human, extracellular domain; Dimeric ECD-hFc-ST3 fusion behind the influenza HA signal peptide; prey on SC3-mi3 nanoparticles, bait on SC3 beads; source: Expi293, transfected, purified from supernatant (Ni-NTA / HisTrapFF); not shown: Fc (human IgG1, DAPA mutations), C-terminal, kept; FLAG, C-terminal, kept; SpyTag003, C-terminal, kept
[6]
  MFI: > 7000
